Experimental data: patent US20190134153A1, “IMMUNOMODULATORY EFFECT OF INHALED KINASE INHIBITOR PEPTIDES IN LUNG” (MOERAE MATRIX, INC., priority 2017, published 2019)

Legend:
Test in all cases: Kinase Profiling Assay
Format in all cases: biochemical
Details in all cases: 100 μM
CHK2(R145W)(h) = CHK2(R145W)(h) (Homo sapiens, UniProt O96017, R145W)
cKit(h) = cKit(h) (Homo sapiens, UniProt P10721)
cSRC(h) = cSRC(h) (Homo sapiens, UniProt P12931)
MLK1(h) = MLK1(h) (Homo sapiens, UniProt P80192)
NEK7(h) = NEK7(h) (Homo sapiens, UniProt Q8TDX7)
Sequence of NEK7(h) (Q8TDX7 whole entry): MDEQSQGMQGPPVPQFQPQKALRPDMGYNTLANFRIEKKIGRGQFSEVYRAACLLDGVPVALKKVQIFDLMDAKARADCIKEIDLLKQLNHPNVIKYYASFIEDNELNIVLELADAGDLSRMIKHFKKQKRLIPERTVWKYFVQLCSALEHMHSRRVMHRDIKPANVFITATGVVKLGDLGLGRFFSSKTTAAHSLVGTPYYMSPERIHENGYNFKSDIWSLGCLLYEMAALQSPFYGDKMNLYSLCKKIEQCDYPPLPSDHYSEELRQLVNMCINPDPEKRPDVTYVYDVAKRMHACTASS

p70S6K(h) = p70S6K(h) (Homo sapiens, UniProt P23443)
PAK2(h) = PAK2(h) (Homo sapiens, UniProt Q13177)
Sequence of PAK2(h) (Q13177 whole entry): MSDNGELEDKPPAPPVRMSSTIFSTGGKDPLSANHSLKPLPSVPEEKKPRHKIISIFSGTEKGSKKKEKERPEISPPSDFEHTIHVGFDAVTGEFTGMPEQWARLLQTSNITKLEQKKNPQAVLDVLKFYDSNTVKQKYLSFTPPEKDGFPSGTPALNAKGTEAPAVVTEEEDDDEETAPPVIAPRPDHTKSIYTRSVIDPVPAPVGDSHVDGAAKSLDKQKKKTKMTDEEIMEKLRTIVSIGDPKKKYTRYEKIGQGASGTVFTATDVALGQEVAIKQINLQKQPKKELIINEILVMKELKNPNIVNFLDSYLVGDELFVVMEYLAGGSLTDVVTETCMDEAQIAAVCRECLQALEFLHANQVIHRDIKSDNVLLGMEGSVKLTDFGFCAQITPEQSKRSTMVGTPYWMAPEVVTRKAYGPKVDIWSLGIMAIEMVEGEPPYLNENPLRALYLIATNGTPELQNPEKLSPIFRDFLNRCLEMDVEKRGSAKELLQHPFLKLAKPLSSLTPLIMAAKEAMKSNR

PASK(h) = PASK(h) (Homo sapiens, UniProt Q96RG2)
Sequence of PASK(h) (Q96RG2 whole entry): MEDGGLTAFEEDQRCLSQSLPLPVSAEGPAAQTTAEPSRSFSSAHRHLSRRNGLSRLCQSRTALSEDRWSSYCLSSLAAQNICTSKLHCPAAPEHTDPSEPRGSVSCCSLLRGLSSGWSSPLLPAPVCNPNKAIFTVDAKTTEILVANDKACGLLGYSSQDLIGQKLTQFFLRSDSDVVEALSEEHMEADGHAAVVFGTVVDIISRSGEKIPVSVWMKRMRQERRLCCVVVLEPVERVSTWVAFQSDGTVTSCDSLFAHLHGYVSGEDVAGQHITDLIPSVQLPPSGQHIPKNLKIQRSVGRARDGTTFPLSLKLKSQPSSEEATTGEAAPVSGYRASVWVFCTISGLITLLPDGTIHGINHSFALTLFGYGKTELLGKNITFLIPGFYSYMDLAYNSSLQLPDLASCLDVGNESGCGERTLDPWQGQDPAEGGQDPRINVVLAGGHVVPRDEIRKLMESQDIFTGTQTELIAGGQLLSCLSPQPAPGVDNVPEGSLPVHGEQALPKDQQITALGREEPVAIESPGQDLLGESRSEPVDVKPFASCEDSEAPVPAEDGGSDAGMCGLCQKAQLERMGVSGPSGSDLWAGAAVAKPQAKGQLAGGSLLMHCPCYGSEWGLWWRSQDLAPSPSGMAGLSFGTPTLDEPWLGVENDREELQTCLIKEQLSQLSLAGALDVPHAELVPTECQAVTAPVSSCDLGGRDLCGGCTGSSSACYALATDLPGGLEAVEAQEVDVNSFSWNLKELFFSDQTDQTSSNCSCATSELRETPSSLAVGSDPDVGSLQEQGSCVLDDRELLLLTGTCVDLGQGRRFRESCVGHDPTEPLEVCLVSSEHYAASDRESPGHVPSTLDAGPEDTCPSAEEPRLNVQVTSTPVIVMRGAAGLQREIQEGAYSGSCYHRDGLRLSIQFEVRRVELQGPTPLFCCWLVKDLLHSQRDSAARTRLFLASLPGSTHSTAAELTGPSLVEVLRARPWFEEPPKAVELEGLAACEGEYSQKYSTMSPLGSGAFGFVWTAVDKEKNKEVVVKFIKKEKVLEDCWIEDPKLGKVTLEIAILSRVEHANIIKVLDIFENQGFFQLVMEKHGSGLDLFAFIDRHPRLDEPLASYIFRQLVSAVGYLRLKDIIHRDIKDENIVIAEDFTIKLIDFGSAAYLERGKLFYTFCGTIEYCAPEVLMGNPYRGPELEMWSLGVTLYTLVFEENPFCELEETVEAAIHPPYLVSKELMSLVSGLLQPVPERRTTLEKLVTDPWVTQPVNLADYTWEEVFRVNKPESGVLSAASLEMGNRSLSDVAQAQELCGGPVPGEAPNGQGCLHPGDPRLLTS

PKCδ(h) = PKCδ(h) (Homo sapiens, UniProt Q05655)
PRK2(h) = PRK2(h) (Homo sapiens, UniProt Q16513)
Sequence of PRK2(h) (Q16513 whole entry): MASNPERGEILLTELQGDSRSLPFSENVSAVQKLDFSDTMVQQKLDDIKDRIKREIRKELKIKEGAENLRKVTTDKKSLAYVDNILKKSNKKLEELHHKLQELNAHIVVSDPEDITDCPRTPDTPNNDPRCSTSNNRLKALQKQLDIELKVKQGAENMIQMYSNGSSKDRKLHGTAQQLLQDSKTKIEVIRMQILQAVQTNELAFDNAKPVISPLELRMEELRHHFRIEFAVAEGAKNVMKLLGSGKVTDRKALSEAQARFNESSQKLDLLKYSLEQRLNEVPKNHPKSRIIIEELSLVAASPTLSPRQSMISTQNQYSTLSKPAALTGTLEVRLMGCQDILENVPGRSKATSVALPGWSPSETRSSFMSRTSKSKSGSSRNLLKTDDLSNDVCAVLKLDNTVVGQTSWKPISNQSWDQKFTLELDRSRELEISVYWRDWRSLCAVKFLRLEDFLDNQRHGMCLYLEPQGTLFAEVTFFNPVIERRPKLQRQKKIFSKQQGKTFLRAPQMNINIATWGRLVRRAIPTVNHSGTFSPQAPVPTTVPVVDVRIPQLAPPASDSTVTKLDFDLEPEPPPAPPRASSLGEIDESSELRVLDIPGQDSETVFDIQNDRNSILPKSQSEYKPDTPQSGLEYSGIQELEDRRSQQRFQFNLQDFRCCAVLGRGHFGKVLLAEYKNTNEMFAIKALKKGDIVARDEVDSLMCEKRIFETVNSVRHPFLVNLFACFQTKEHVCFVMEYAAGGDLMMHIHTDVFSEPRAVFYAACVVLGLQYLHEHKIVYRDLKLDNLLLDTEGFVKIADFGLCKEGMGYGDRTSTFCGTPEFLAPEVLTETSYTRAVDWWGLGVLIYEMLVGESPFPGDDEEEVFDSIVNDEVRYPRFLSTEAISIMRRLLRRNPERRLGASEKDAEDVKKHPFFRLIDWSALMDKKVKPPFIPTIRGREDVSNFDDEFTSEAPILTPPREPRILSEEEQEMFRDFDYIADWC

Rse(h) = target: T1, Rse(h) (Homo sapiens, UniProt Q06418)
T1 sequence (Q06418 41-890): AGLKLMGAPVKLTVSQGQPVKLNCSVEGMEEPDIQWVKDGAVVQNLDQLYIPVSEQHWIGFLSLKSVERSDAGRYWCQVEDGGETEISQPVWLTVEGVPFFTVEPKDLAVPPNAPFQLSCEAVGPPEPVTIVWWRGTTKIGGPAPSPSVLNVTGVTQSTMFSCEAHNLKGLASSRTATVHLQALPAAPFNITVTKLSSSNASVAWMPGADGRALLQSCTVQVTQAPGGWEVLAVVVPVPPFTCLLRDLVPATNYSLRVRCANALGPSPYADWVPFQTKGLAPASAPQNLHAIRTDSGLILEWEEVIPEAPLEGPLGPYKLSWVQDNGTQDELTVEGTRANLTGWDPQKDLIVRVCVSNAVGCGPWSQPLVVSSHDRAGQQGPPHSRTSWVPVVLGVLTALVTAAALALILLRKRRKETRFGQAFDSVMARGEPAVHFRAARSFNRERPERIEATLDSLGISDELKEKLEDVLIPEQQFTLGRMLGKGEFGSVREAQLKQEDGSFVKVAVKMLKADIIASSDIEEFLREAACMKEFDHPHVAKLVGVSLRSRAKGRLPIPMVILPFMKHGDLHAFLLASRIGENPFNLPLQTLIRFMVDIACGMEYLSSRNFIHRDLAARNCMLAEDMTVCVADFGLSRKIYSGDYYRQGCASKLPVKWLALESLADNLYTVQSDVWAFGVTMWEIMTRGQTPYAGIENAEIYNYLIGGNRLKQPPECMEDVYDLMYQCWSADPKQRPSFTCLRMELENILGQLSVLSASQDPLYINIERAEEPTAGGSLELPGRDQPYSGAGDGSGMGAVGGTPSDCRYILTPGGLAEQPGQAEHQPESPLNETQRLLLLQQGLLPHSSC

SAPK2a(T106M)(h) = SAPK2a(T106M)(h) (Homo sapiens, UniProt Q16539, T106M)
Sequence of SAPK2a(T106M)(h) (Q16539 whole entry T106M): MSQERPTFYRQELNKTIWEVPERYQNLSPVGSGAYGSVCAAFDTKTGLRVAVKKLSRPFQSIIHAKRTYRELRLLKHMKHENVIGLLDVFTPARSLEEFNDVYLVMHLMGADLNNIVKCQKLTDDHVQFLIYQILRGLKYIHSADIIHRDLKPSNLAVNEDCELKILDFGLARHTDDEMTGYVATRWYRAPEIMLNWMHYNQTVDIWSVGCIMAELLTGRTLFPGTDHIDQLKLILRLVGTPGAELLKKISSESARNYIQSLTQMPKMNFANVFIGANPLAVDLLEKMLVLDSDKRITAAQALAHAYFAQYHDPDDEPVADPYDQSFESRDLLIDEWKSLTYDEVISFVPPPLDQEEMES

SRPK1(h) = SRPK1(h) (Homo sapiens, UniProt Q96SB4)
Sequence of SRPK1(h) (Q96SB4 whole entry): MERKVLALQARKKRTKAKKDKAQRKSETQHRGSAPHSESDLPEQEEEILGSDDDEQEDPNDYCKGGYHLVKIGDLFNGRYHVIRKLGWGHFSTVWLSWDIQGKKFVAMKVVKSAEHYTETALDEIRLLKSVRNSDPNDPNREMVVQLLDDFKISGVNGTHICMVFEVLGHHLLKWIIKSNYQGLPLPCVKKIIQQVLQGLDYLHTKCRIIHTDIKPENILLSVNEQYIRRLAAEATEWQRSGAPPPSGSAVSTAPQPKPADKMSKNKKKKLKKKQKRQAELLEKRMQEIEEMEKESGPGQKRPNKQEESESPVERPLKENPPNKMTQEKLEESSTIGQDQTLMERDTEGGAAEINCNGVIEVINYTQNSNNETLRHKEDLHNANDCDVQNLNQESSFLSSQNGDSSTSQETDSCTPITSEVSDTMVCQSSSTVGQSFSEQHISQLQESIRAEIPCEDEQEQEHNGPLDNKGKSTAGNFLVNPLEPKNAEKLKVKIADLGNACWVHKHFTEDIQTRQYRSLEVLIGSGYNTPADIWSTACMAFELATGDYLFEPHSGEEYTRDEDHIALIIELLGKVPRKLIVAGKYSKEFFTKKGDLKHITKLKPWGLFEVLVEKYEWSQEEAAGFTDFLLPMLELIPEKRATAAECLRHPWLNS

Abl(Y253F)(h) = Abl(Y253F)(h) (Homo sapiens, UniProt P00519, Y253F)
IKKβ(h) = target: T2, IKKβ(h) (Homo sapiens, UniProt O14920)
T2 sequence (O14920 1-756): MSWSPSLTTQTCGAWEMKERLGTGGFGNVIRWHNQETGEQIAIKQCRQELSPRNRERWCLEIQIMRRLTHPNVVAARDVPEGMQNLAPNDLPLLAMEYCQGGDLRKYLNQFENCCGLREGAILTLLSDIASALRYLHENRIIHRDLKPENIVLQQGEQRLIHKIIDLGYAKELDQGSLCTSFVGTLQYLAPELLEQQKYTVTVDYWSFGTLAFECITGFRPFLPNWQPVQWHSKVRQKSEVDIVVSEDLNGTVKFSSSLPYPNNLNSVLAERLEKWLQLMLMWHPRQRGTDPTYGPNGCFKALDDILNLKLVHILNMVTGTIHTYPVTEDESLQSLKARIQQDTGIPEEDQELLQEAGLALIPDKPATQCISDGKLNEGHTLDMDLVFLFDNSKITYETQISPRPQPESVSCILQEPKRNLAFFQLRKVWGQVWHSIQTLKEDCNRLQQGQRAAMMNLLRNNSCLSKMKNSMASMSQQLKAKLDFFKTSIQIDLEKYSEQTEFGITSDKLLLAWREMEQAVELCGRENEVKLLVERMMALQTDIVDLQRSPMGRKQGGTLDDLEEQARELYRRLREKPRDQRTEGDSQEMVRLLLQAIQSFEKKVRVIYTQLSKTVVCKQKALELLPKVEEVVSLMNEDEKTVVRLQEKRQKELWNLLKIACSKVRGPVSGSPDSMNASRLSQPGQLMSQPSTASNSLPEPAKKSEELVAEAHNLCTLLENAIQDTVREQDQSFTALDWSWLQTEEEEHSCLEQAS

Plk3(h) = Plk3(h) (Homo sapiens, UniProt Q9H4B4)

Sequence of CHK2(R145W)(h) (O96017 whole entry R145W): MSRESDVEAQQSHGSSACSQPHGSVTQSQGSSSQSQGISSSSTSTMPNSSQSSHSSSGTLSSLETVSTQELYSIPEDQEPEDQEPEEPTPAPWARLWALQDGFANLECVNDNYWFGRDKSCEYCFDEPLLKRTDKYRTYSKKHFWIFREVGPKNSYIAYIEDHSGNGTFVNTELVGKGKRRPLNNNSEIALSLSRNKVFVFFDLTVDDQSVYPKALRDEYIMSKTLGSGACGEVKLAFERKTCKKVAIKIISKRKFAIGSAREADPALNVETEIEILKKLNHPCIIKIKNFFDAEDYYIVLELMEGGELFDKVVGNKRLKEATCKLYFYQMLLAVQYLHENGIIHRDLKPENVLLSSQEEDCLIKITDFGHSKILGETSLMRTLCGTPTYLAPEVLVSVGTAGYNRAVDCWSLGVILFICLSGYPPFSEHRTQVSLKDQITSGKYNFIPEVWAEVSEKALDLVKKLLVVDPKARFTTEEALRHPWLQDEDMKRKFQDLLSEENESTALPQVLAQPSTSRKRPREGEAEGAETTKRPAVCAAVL

Sequence | % activity (CHK2(R145W)(h)) [%] | % activity (cKit(h)) [%] | % activity (cSRC(h)) [%] | % activity (MLK1(h)) [%] | % activity (NEK7(h)) [%] | % activity (p70S6K(h)) [%] | % activity (PAK2(h)) [%] | % activity (PASK(h)) [%] | % activity (PKCδ(h)) [%] | % activity (PRK2(h)) [%] | % activity (Rse(h)) [%] | % activity (SAPK2a(T106M)(h)) [%] | % activity (SRPK1(h)) [%] | % activity (Abl(Y253F)(h)) [%] | % activity (IKKβ(h)) [%] | % activity (Plk3(h)) [%]
YARAAARQARAKALNRQLGVA [MMI-0200] | 81 | 110 | 32 | 84 | 96 | 84 | 69 | 60 | 101 | 74 | 88 | 100 | 93 | – | – | –
FAKLAARLYRKALARQLGVAA [MMI-0300] | 33 | 53 | 26 | 40 | 84 | 35 | 65 | 29 | 101 | 33 | 88 | 97 | 90 | 86 | 84 | 127
KAFAKLAARLYRKALARQLGVAA [MMI-0400] | 31 | 43 | 14 | 33 | 87 | 33 | 59 | 28 | 90 | 27 | 89 | 99 | 96 | 78 | 84 | 129
HRRIKAWLKKIKALARQLGVAA [MMI-0500] | 3 | 45 | 30 | 43 | 89 | 3 | 44 | 9 | 61 | 7 | 63 | 32 | 80 | 29 | 71 | 122
